In the RNAGym collection of RNA variant scans (doi:10.7554/elife.80360):

B1: HDV Ribozyme (parent)
chain: GGCCGGCAUGGUCCCAGCCUCCUCGCUGGCGCCGGCUGGGCAACAUUCCGAGGGGACCGUCCCCUCGGUAAUGGCGAAUGGGACCCA

Variants of: B1
Experiment: self-cleavage, relative activity (ratio to wild type); higher = more cleavage; co-transcriptional

Variant	self-cleavage
G5A G67A	0.125
G5A G67U	0.17
C4A C33G	0
G5A G28A	0.0378
G5A G28C	0.104
C4G G6C	0.214
C4A C49G	0.302
G5A C44U	0.0627
G5A C44A	0
C4U C13A	0.122
G5A U9C	0.0639
C4U C32A	0.0906
C4A G39U	0.14
G5C C26U	0.489
C3U G11U	0.138
C4A C22U	0.148
C4A C22G	0.102
G5A G74C	0.0923
G5A G50A	0.192
C4A G81A	0.0468
C3U G50C	0.686
C3U G28U	0.0707
C4G C66G	0.727
C4A U20A	0.0386

Variant	self-cleavage
C4A U20G	0
C3U G31U	0.173
C4U C21G	0
C4U C21A	0
C4U G10U	0.163
C4G A43U	0.0415
C4G C64G	0.259
C4U U79C	0.136
C4U C86U	0.889
C4A U46A	0.151
C4A U46G	0.0615
C4A U46C	0.111
G5A G35U	0.0396
C4A G80C	0
C4A G80U	0.048
C4A G80A	0.0519
G5A C41U	0.277
C3U U79A	0.591
G5A G31U	0.0332
G5C	0.213
G5A	0.199
C4U A78C	0.0378
C4A G38U	0.0449
C4A G25U	0.0252

Variant	self-cleavage
C4G C33U	0.123
C4A U27C	0
C4A U27A	0.189
G5A C14A	0
G5A C14G	0.0639
C4G C61G	0.325
C4G C61A	0.35
G5C C15G	0.249
C4U A56G	0.665
C4U A56U	0.898
C4U C30G	0
C4U C30A	0.133
C4A C75A	0.157
C4A C75U	0.102
C4U A83U	0.115
C3U G55U	0.805
C3U G55C	0.867
C4U G68A	0.604
C4U G68C	0.635
C4G A87U	0.225
C4A C48A	0.225
C4A C48U	0.151
C3U U47C	0.564
C3U U47A	0.969

Variant	self-cleavage
G5A C15G	0.151
G5A C15U	0.0475
C4A A77G	0.0369
C4A A77U	0
C4G G34U	0.864
G5A C85A	0.113
C3U C66A	0.69
C3U C66G	0.758
C4U U27A	0.246
C4U U27G	0.453
C3U G5C	0.0123
C3U G5U	0.107
G5A C22A	0.0426
C4G C84A	0.225
C4A G34U	0.831
C4A A87C	0.21
C4A A87G	0.233
C4A A87U	0.39
C4G A8C	0.0898
C3U G73A	0.366
C3U G73U	0.257
C4G C36U	0.0504
C4G C36G	0.0268
C4G G53C	0.213

Variant	self-cleavage
C4G G53A	0.277
G5C A16G	0.145
G5C A16U	0.237
C4G G10C	0.237
C4G G10U	0.0779
C4G C41G	0.0437
G5A G59U	0.222
G5A G59C	0.219
C4U G73A	0.293
G5A A87C	0.124
G5A C19G	0.0898
C3U G35C	0.49
G5A C21G	0.0811
G5A C21U	0.163
C4U G39C	0.0536
C4G G11U	0.0767
C4A C36U	0
C4A G67C	0.348
C4A G67A	0.149
C3U G6U	0.0934
C3U G6A	0.245
C4A G59U	0.415
G5C G31U	0.0405
C3U U37C	1.08

Variant	self-cleavage
C4A A8G	0.192
C4G G40A	0.237
C4G C86U	0.44
C4A A71U	0.259
C4A A71G	0.151
C4G G59U	0.475
C4U A71G	0.643
G5A A56G	0.225
G5A A56U	0.106
C4U G29C	0.0396
C4U G29A	0
C4A C58A	0.348
G5A G54A	0.177
C4U G6C	0
C4A C19U	0.0203
G5C C13G	0.262
C3U C62G	0.415
C3U G25C	0.113
C4U G59C	0.81
G5A G11U	0.0665
C3U C86A	0.923
C3U C86U	0.718
G5A C18G	0
G5A C18U	0

Variant	self-cleavage
C4U C66G	0.875
C4G C58A	0.429
C4A C66G	0.289
C4A C13A	0.0282
C4U G38A	0.0978
C4U G38U	0.13
C4A U9G	0.383
C4A U9A	0.323
G5A C24A	0.0978
C4A U69A	0.185
C4A C57G	0.277
C4G C7U	0.0234
C4A G29C	0.0369
G5C C30U	0.128
C3U G54U	0.732
G5A U60G	0
G5A U60A	0.125
C4U C44A	0.578
C4U C44U	0.394
G5C G29U	0
C4G U23G	0.0386
G5A G53U	0.309
C4U C84G	0.19
C4G C21G	0

Variant	self-cleavage
G5A A71U	0.231
C4G U47A	0.346
C4A U79G	0
C4A U79C	0
C4U G17C	0.147
C4A C85G	0.393
G5A C84G	0.0875
C4G G31C	0.108
C4U C22U	0.259
G5C A78U	0.0755
C4U C62A	1.06
C4A G40C	0.0511
G5A G82C	0
C4G U37C	0.375
G5C A43U	0.0489
C4A A51U	0.145
C4A A51G	0.502
C3U G53A	1
C4U A16U	0.462
C4U A16G	0.862
C4G G54A	0.288
C4G G54U	0.464
C4A G6U	0.0791
C4A G6A	0.0573

Variant	self-cleavage
G5A U47A	0.208
G5C C49G	0.192
G5A U20G	0.185
G5A U20A	0.0437
G5A A16G	0.35
C4A G74A	0
G5A G17C	0.0594
C4A A78C	0.0308
C3U G40C	0.26
G5A A83C	0.175
G5A A83U	0.0426
C3U G76C	0.708
C4U G81C	0.135
G5C C44A	0
G5A C48G	0.101
G5A C48A	0.0437
C4G G73C	0.0361
G5A G25C	0.0923
G5A G25U	0.0339
C4G A56U	0.462
C4G A56C	0.32
G5A A70U	0.19
C4A G31A	0.0415
C3U G74A	0.245

Variant	self-cleavage
C4G G50U	0.527
G5A C66A	0.173
C3U G29C	0.0601
C4U C75U	0.155
C4U C75A	0.128
G5A C49A	0.302
G5A C49U	0.18
G5A C63G	0.0755
G5A C63A	0.277
G5C C64A	0.178
C4U G50U	0.656
C4U G25U	0.0287
C4G C30U	0.0615
C4G G17A	0.0791
C4G G17C	0.0354
G5A G55U	0.122
G5C A56C	0
C3U U20C	0.113
C4A G10A	0.0554
C4A G10C	0.141
G5A G40C	0.136
C4A C41A	0.117
G5C G35U	0.0308
G5C G35A	0.113

Variant	self-cleavage
C4U C63A	0.95
G5A G68C	0.17
G5A G68A	0.164
G5C C62U	0.222
G5C C62A	0.0665
G5A A51U	0.104
G5A A51G	0.203
C4G G67U	0.227
C4G G67A	0.437
C4A A43G	0.158
C4A A43U	0.0707
G5C G6U	0.185
C4G G74A	0.0639
G5C C57U	0.185
C3U U69C	0.616
C4U A70C	0.482
G5A U23G	0.0923
C4G C19A	0
C4U U47A	0.739
G5A G52C	0.253
G5A G52A	0.227
C4A G11A	0.0183
C4A G11C	0.0604
C4U A8U	0.415

Variant	self-cleavage
C4U A8G	0.762
C4A G52C	0.406
C4A G52U	0.213
C4G C44U	0.141
G5C G11A	0.0449
G5C C61G	0.287
G5C C61U	0
C4G C57U	0.529
G5A G10C	0.308
G5A G10A	0.203
C4G U20C	0.0791
C3U C64A	0.518
C4A C24G	0.0573
C4G C62U	0.388
C4G C62A	0.446
C4A C86A	0.185
C4U A77U	0.415
G5C A87C	0.268
G5C A87U	0.175
G5A U79G	0.0923
C4U U60G	0.939
C4U C26A	0.773
C4U C33A	0.0845
C4U C7U	0.457

Variant	self-cleavage
C4U C7A	0.104
C3U G17C	0.0297
C3U G17U	0.193
C4G U12A	0
G5C A83U	0
C4G U65G	0.231
C4A C18U	0.119
G5C C32G	0
G5C C32U	0.0573
C4U C41A	0.434
C3U G39U	0.385
G5A G38U	0.0804
G5A G38A	0.147
C4A U47G	0.201
C4G A83C	0.102
C3U C63G	0.572
C3U G82A	0.283
G5A G80U	0.0971
G5A G80A	0.143
C4G G5C	0.0594
C4A C32A	0.0332
G5A U37C	0.764
C4G G82C	0
C4G G82A	0.0674

Variant	self-cleavage
C4A A45C	0.0519
C4A A45G	0.138
G5C A8C	0
C4G G25U	0.109
C4A U37A	0.0332
C4U U12C	0.145
C4U U12A	0.111
C4U U37A	0
G5A G81A	0.0978
G5A G6A	0
G5C C58U	0.293
C4U C15G	0.262
C4A C21G	0
G5A U65C	0.308
C4A C63G	0.0755
G5C C84A	0.142
G5C C48U	0.308
C4U A87G	0.599
C4U A87U	0.817
C4G A42C	0
C4U G40U	0.48
C4G U9A	0.534
